The target in assay [1] is T1, SEZ6 Sushi Domain 5 (amino acids 817-878) on yeast (human, UniProt Q53EL9 836-897).
T1 construct: yeast display
Briefly: yeast display, flow cytometry.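 Also: antibody binding to individual SEZ6 domains displayed on yeast, measured by flow cytometry, antibody at 50 nM purified or hybridoma supernatant diluted 1:2, 90 min on ice.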

Assay [2] has as its target T2, SEZ6 Sushi Domain 2 (amino acids 511-572) on yeast (human, UniProt Q53EL9 530-591).
T2 construct: yeast display
T2 sequence: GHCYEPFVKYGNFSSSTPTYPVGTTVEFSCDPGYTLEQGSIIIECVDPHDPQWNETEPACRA
Briefly: yeast display, flow cytometry.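 Also: antibody binding to individual SEZ6 domains displayed on yeast, measured by flow cytometry, antibody at 50 nM purified or hybridoma supernatant diluted 1:2, 90 min on ice.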 A general note: Flow cytometry measures light scatter and fluorescence of single cells or particles in a stream.

Assay [3] addresses T3, SEZ6 Sushi Domain 3 (amino acids 690-748) on yeast (human, UniProt Q53EL9 709-767).
T3 construct: yeast display
Briefly: yeast display, flow cytometry.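 Also: antibody binding to individual SEZ6 domains displayed on yeast, measured by flow cytometry, antibody at 50 nM purified or hybridoma supernatant diluted 1:2, 90 min on ice.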

The target of assay [4] is T4, SEZ6 Sushi Domain 4 (amino acids 750-813) on yeast (human, UniProt Q53EL9 769-832).
T4 construct: yeast display
Description: yeast display, flow cytometry.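 Also: antibody binding to individual SEZ6 domains displayed on yeast, measured by flow cytometry, antibody at 50 nM purified or hybridoma supernatant diluted 1:2, 90 min on ice.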

The target in assay [5] is T5, human SEZ6 on HEK-293T cells (human, UniProt Q53EL9 20-994).
T5 construct: also called h293T-HuSEZ6
Briefly: immunohistochemistry.

In another assay the target is T6, hSEZ6-ECD-His (human, UniProt Q53EL9 20-925).
T6 construct: the whole entry is named; also called recombinant SEZ6-His; human recombinant SEZ6-His
Briefly: immunohistochemistry, signal competed by soluble antigen.

B1: SC17.74 (antibody, V domains shown)
VH: QVQLKQSGPGLVAPSQSLSITCTVSGFSLTSYGVDWVRQSPGKGLEWLGVIWGGGSTNYNSALKSRLSITKDNSKSQVFLKMNSLQTDDTAMYYCASGDYDGSLWFAYWGQGTLVTVSA
VL: DIQMTQSSSYLSVSLGGRVTITCKASDHINNWLAWYQQKPGNAPRLLISGATSLETGVPSRFSGSGSGKDYTLSITSLQTEDVATYYCQQYWSTPPTFGAGTKLELK
notes: murine mAb
Take B1: the binding result in assay [1] was “binds”.

B2: SC17.90 (antibody, V domains shown)
VL: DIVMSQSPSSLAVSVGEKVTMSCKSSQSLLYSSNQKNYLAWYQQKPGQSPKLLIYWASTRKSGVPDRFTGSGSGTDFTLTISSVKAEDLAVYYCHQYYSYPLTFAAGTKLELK
VH: QVQLQQPGSVLVRPGASVKLSCKASGYTFTSYWMHWVKQRPGQGLEWIGEIHPNNGSTNYNEKFKGKATLTVDTSSSTAYVDLSSLTSEDSAVYYCARWTLFTYWGQGTLVTVSA
notes: murine mAb; also called SC17.155 (duplicate)
For B2, the binding result in assay [2] is reported as “binds”.

B3: SC17.95 (antibody, V domains shown)
VH: EVELQQSGPELVKPGASVKISCKTSGNTYTEYTMQWVKLSHGKSLEWIGGINPNNGITSYNQKFKGKATLTVDKSSSTAYMELRSLKSEDSAVYYCARAGLGNYVWAMDYWGQGASVTVSS
VL: DIQMTQTTSSLSASLGDRVTISCSASQGINNYLNWYQQKPDGTVTLLIYYTSSLHSGVPSRFSGSGSGTDYSLTISNLEPEDIATYYCQQYSKLPWTFGGGTKLEIK
notes: murine mAb
With B3, the binding result in assay [3] is listed as “binds”.

B4: SC17.140 (antibody, V domains shown)
VH: EVQLQQSGPELMKPGASVKMSCKASGYTFTDYNMHWVKQNQGKSLEWIGEINPNTGGTGYNQKFKGKATLTVDKFSSTAFIELRSLTSEDSAIYYCTRGGYDHYWYFDVWGAGTTVTVSS
VL: QIVLTQSPAIMSASPGEKVTMTCSASSSVSYMHWYQQKSGTSPKRWIYDTSKLASGVPARFSGSGSGTSYSLTISSMEAEDAATYYCQQWSSTPPTFGSGTKLEIK
notes: murine mAb
Turning to B4, the binding result (in assay [4]; in assay [5]; in the assay with hSEZ6-ECD-His) was “binds” each time.

The values above are taken from US20190022241A1 (AbbVie / Abbott, published 2019).
